Here are results for two substances from US20160016995A1.

Data set [1] deals with GFP-pdt#5B (Example 1) [GFP: P42212].
Data set [2] has as its system GFP-pdt#5 (Example 1) [GFP: P42212].
Data set [3] concerns GFP-pdt#6 (Example 1) [GFP: P42212].
The test system of data set [4] is GFP-pdt (GFP with C-terminal wild-type M. florum ssrA tag) [GFP: P42212].
In data set [5] the test system is GFP-pdt#5A (Example 1) [GFP: P42212].
Data set [6] relates to untagged GFP (GFPmut3b) [GFP: P42212].
Data set [7] concerns GFP-pdt#5H (Example 1) [GFP: P42212].
The subject of data set [8] is GFP-pdt#3 (Example 1) [GFP: P42212].
For data set [9], the system named is GFP-pdt#4 (Example 1) [GFP: P42212].
Data set [10] deals with GFP-pdt#2 (Example 1) [GFP: P42212].

With Mesoplasma florum Lon protease (mf-Lon), the Fold Degradation (0 vs 50 ng/ml aTc) in the data set on GFP-pdt#S2 [GFP: P42212] was determined as 44.9 fold; with GFP-pdt#5E [GFP: P42212], 7.2 fold; in [1] it was 2.6 fold; in the data set with GFP-pdt#9 [GFP: P42212], 17 fold; in data set [2], 48.7 fold; in the data set with GFP-pdt#10 [GFP: P42212], 41.5 fold. Also, the Fold Degradation (0 vs 50 ng/ml aTc) in [3] was 55.4 fold; in the data set on GFP-pdt#5C [GFP: P42212], 1.6 fold; with GFP-pdt#S1 [GFP: P42212] it was 39.4 fold; with GFP-pdt#8 [GFP: P42212], 48.4 fold; in the data set with GFP-pdt#1 [GFP: P42212] it was 24.6 fold; in the data set on GFP-pdt#5D [GFP: P42212], 12 fold. Further, the Fold Degradation (0 vs 50 ng/ml aTc) in data set [4] was found to be 20.7 fold; in the data set with GFP-pdt#11 [GFP: P42212] it was 17.7 fold; in the data set with GFP-pdt#5G [GFP: P42212], 4.2 fold; in data set [5], 5.4 fold; in the data set with GFP-pdt#5F [GFP: P42212], 4 fold; with GFP-pdt#S3 [GFP: P42212] it was 38.7 fold. Further, the Fold Degradation (0 vs 50 ng/ml aTc) in [6] was determined as 1.2 fold; with GFP-pdt#7 [GFP: P42212], 31.7 fold; in [7], 3.6 fold; in data set [8], 61.8 fold; in [9] it was 51 fold; in data set [10], 51.8 fold. Also, the results for the Fold Degradation (0 vs 50 ng/ml aTc) with GFP-pdt#13 [GFP: P42212] and in the data set on GFP-pdt#12 [GFP: P42212] were 18.6 fold and 31.6 fold, respectively. Besides, the “GFP level after mf-Lon expression (Example 2)” value in data set [4] was “reduced to 3% of its initial levels”.
Take “mf-Lon fused to the E. coli ssrA tag variant ec-AAV”: the “GFP-pdt#3 (Example 2 name) degradation across ATc levels” value in data set [2] was “resulting in reduced GFP-pdt#3 degradation throughout the range of ATc levels tested”.
